According to paper PMC5440810:

How the values were obtained:
[1] = biological target: P18-I10/H2-D^d (peptide-loaded MHC class I with β2m) (mouse | not stated); test: AUC
[2] = biological target: P18-I10/H2-D^d, BirA-tagged and biotinylated (mouse | not stated); test: SPR

B4.2.3 TCR, soluble disulfide-linked αβ heterodimer (extracellular portions)
Kd [1]: 230 nM | stoichiometry N [1]: 1 | Kd [2]: 540 nM
